Measured values reported in US20130251724A1 (GlaxoSmithKline, published 2013).
Substitutions are numbered along the chain they refer to. Names may count otherwise.

B1: Humanised 10G8 H0 + L1 IGKV1_5 (antibody, V domains shown)
VH: EVQLVESGGGLVQPGGSLRLSCAASGFTFSNYAMSWVRQAPGKGLEWVATISDGGSFTYYLDNVRGRFTISRDNAKNSLYLQMNSLRAEDTAVYYCARDVGHTTFWYFDVWGRGTLVTVSS
VL: DIVMTQSPDSLAVSLGERATINCRASKSVSAAGYNFMHWYQQKPGQPPKVLIYKASSLESGVPDRFSGSGSGTDFTLTISSLQAEDVAVYYCLHSREFPFTFGGGTKVEIK
notes: built from the stated exchange of CDRL2; residue limits derived by me; Human gamma 1/kappa constant regions
B2: Humanised 10G8 H0 IGHV3_7 + L1 IGKV4_1 (antibody, V domains shown)
VH: B1 VH with N31S, A33W
VL: B1 VL with K54W, S57T, L58R
notes: built from the stated CDR exchanges; residue limits derived by me
B3: Humanised 10G8 H0 IGHV3_23 + L1 IGKV1_5 (antibody, V domains shown)
VH: B1 VH with N31S
VL: B1 VL
notes: built from the stated exchange of CDRL2; residue limits derived by me
B4: Humanised 10G8 H0 IGHV3_7 + L1 (antibody, V domains shown)
VH: B1 VH with N31S, A33W
VL: B1 VL with K54Y, S57N
notes: built from the statement that the germline CDRH1 was exchanged for the mouse CDRH1 in H0; Human gamma 1/kappa constant regions
B5: Pos 101 Glu (antibody, V domains shown)
VH: B1 VH with N31S, D109E
VL: DIVMTQSPDSLAVSLGERATINCRASKSVSAAGYNFMHWYQQKPGQPPKVLIYYASNLESGVPDRFSGSGSGTDFTLTISSLQAEDVAVYYCLHSREFPFTFGGGTKVEIKR
notes: also called CDRH3 D101>E
B6: Pos 102 Ala (antibody, V domains shown)
VH: B1 VH with N31S, V110A
VL: B5 VL
notes: also called CDRH3 V102>A
B7: Pos 101 Gly (antibody, V domains shown)
VH: B1 VH with N31S, D109G
VL: B5 VL
notes: also called CDRH3 D101>G
B8: Pos 102 Gly (antibody, V domains shown)
VH: B1 VH with N31S, V110G
VL: B5 VL
notes: also called CDRH3 V102>G
B9: Pos 102 Pro (antibody, V domains shown)
VH: B1 VH with N31S, V110P
VL: B5 VL
notes: also called CDRH3 V102>P
B10: Pos 102 Leu (antibody, V domains shown)
VH: B1 VH with N31S, V110L
VL: B5 VL
notes: also called CDRH3 V102>L
B11: Pos 102 Gln (antibody, V domains shown)
VH: B1 VH with N31S, V110Q
VL: B5 VL
notes: also called CDRH3 V102>Q
B12: Pos 102 Phe (antibody, V domains shown)
VH: B1 VH with N31S, V110F
VL: B5 VL
notes: also called CDRH3 V102>F
B13: Pos 95 Thr (antibody, V domains shown)
VH: B1 VH with N31S, D99T
VL: B5 VL
notes: also called CDRH3 D95>T
B14: Pos 96 Thr (antibody, V domains shown)
VH: B1 VH with N31S, V100T
VL: B5 VL
notes: also called CDRH3 V96>T
B15: Pos 100C Val (antibody, V domains shown)
VH: B1 VH with N31S, Y107V
VL: B5 VL
notes: also called CDRH3 Y100C>V
B16: Pos 100D Val (antibody, V domains shown)
VH: B1 VH with N31S, F108V
VL: B5 VL
notes: also called CDRH3 F100D>V
B17: Pos 100D Trp (antibody, V domains shown)
VH: B1 VH with N31S, F108W
VL: B5 VL
notes: also called CDRH3 F100D>W
B18: Pos 102 Ser (antibody, V domains shown)
VH: B1 VH with N31S, V110S
VL: B5 VL
notes: also called CDRH3 V102>S
B19: Pos 98 Trp (antibody, V domains shown)
VH: B1 VH with N31S, H102W
VL: B5 VL
notes: also called CDRH3 H98>W
B20: Pos 100C Trp (antibody, V domains shown)
VH: B1 VH with N31S, Y107W
VL: B5 VL
notes: also called CDRH3 Y100C>W
B21: Pos 101 Val (antibody, V domains shown)
VH: B1 VH with N31S, D109V
VL: B5 VL
notes: also called CDRH3 D101>V
B22: Pos 96 Trp (antibody, V domains shown)
VH: B1 VH with N31S, V100W
VL: B5 VL
notes: also called CDRH3 V96>W
B23: Pos 100B Gln (antibody, V domains shown)
VH: B1 VH with N31S, W106Q
VL: B5 VL
notes: also called CDRH3 W100B>Q
B24: Pos 100A Met (antibody, V domains shown)
VH: B1 VH with N31S, F105M
VL: B5 VL
notes: also called CDRH3 F100A>M
B25: Pos 100 Ala (antibody, V domains shown)
VH: B1 VH with N31S, T104A
VL: B5 VL
notes: also called CDRH3 T100>A
B26: Pos 101 Ala (antibody, V domains shown)
VH: B1 VH with N31S, D109A
VL: B5 VL
notes: also called CDRH3 D101>A
B27: Pos 100C Gln (antibody, V domains shown)
VH: B1 VH with N31S, Y107Q
VL: B5 VL
notes: also called CDRH3 Y100C>Q
B28: Pos 100C Leu (antibody, V domains shown)
VH: B1 VH with N31S, Y107L
VL: B5 VL
notes: also called CDRH3 Y100C>L
B29: Pos 101 Gln (antibody, V domains shown)
VH: B1 VH with N31S, D109Q
VL: B5 VL
notes: also called CDRH3 D101>Q
B30: Pos 100A Gln (antibody, V domains shown)
VH: B1 VH with N31S, F105Q
VL: B5 VL
notes: also called CDRH3 F100A>Q
B31: Pos 100A His (antibody, V domains shown)
VH: B1 VH with N31S, F105H
VL: B5 VL
notes: also called CDRH3 F100A>H

target: T1, Human OSM (human, UniProt P13725 26-221); assay: BIAcore kinetics, transfection supernatant
T1 construct: Recombinant human OSM; also called hOSM; human Oncostatin M
T1 sequence: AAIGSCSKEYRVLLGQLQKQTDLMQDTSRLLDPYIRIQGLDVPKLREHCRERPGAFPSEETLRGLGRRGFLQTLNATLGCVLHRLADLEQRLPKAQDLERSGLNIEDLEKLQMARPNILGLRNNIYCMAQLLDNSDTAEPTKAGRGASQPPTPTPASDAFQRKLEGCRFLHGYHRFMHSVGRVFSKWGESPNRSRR

Binder	Kd	koff	kon
B1	9.33 nM	0.00064 s⁻¹	68700 M⁻¹ s⁻¹
B2	44.4 nM	0.00163 s⁻¹	36800 M⁻¹ s⁻¹
B3	9.27 nM	0.00066 s⁻¹	71100 M⁻¹ s⁻¹
B4	10.6 nM	0.000967 s⁻¹	91000 M⁻¹ s⁻¹

target: T2, Cynomolgus OSM (cynomolgus, UniProt A0A2K5VPC6 26-221); assay: BIAcore kinetics, transfection supernatant
T2 construct: also called Cyno OSM; cynomolgus macaque OSM
T2 sequence: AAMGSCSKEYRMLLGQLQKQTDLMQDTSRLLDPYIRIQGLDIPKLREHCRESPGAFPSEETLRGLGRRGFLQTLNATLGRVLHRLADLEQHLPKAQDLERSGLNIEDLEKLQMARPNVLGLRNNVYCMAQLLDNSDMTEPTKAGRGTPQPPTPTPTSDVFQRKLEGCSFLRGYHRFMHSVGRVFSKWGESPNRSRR

Binder	Kd	koff	kon
B1	8.26 nM	0.000557 s⁻¹	67500 M⁻¹ s⁻¹
B2	34.9 nM	0.00177 s⁻¹	50700 M⁻¹ s⁻¹
B3	8.89 nM	0.000593 s⁻¹	66700 M⁻¹ s⁻¹
B4	24.2 nM	0.815 s⁻¹	3.37e+07 M⁻¹ s⁻¹

target: T1, Human OSM; assay: SPR (ProteOn XPR36 or Biacore T100), captured supernatant, OSM as analyte
Method: (§1) The initial kinetic analyses for the CDRH3 screen were carried out on the ProteOn XPR36 (Biorad Laboratories) and certain supernatants were selected for more accurate kinetic analysis on the BiaCore T100.
(§2) For the ProteOn analysis, anti-human IgG (GE Healthcare/Biacore BR-1008-39) was coupled to a GLM chip (Biorad Laboratories 176-5012) by primary amine coupling. The CDRH3 variants were captured directly on to this surface and recombinant human OSM was passed over the captured antibody surface at 256, 64, 16, 4 and 1 nM, with a buffer injection alone (i.e. 0 nM) used to double reference the binding curves. Following the OSM binding event, the capture surfaces were regenerated: with 3M MgCl₂ the regeneration removed the previously captured antibody ready for another cycle of capture and binding analysis. The data was then fitted to the 1:1 model (with mass transport) inherent to the ProteOn analysis software. The run was carried out using HBS-EP (Biacore/GE-Healthcare BR-1006-69) and the analysis temperature was 25° C.
(§3) A similar method was used for analysis of constructs using the Biacore T100, anti-human IgG (GE Healthcare/Biacore BR-1008-39) was coupled to a CM5 chip (GE Healthcare/Biacore BR-1006-68) by primary amine coupling, antibodies were captured on this surface and recombinant human OSM was passed over the captured antibody surface at 256, 64, 16, 4 and 1 nM, with a buffer injection alone (i.e. 0 nM) used to double reference the binding curves. Regeneration was by using pulses of 3M 3M MgCl₂ or 100 mM phosphoric acid or using both reagents. The data was fitted to the 1:1 model inherent to the Biacore T100 analysis software. The run was carried out using HBS-EP (Biacore/GE-Healthcare BR-1006-69) and the analysis temperature was 25° C.

Binder	Kd
B5	0.426 nM
B6	0.338 nM
B7	0.71 nM
B8	0.406 nM
B9	0.411 nM
B10	0.426 nM
B11	0.337 nM
B12	0.425 nM

target: T1, Human OSM; assay: SPR (ProteOn XPR36 or Biacore T100), captured supernatant, OSM as analyte [continued]
Method: as §1, §2, §3

Binder	Kd
B13	0.632 nM
B14	0.497 nM
B15	0.56 nM
B16	0.675 nM
B17	0.711 nM
B18	0.444 nM
B19	0.317 nM
B20	0.687 nM
B21	0.44 nM
B22	0.979 nM

target: T1, Human OSM; assay: SPR (ProteOn XPR36 or Biacore T100), captured supernatant, OSM as analyte; grey cell: 3x decrease in binding
Method: as §1, §2, §3

Binder	Kd
B23	3.35 nM
B24	5.19 nM
B25	8.55 nM
B26	1.55 nM
B27	1.17 nM
B28	0.424 nM
B29	1.1 nM
B30	14.6 nM
B31	39.7 nM
